Legend:
[1] = WB of endogenous EP300, 786-O and Caki-1; details: glycan lost; control: untreated
[2] = CHX chase, WB, 786-O cells; details: glycan lost; control: Flag-EP300-WT
[3] = anti-Flag WB of cell fractions; details: glycan lost; control: Flag-EP300-WT
[4] = nuclear/cytoplasmic fractionation WB and IF; details: glycan lost; control: Flag-EP300-WT

| Substance | expression_or_secretion [1] | degradation_or_half_life [2] | expression_or_secretion [3] | localisation_or_trafficking [4] |
| --- | --- | --- | --- | --- |
| EP300: OSMI-1 | decreases |  |  |  |
| EP300: S900A |  | decreases | changes | no change |

From article PMC11343739
